Tests used:
Assay in all cases: co-IP with mouse anti-FLAG from lysate of cells overexpressing N-FLAG B3GNT2, then mass spectrometry
CAPRIN1 = molecular target: T1, CAPRIN1 (human, UniProt Q14444 2-709)
T1 construct: Identified by mass spectrometry in the co-IP; also called NP_005889.3 (+1)
T1 sequence (looked up): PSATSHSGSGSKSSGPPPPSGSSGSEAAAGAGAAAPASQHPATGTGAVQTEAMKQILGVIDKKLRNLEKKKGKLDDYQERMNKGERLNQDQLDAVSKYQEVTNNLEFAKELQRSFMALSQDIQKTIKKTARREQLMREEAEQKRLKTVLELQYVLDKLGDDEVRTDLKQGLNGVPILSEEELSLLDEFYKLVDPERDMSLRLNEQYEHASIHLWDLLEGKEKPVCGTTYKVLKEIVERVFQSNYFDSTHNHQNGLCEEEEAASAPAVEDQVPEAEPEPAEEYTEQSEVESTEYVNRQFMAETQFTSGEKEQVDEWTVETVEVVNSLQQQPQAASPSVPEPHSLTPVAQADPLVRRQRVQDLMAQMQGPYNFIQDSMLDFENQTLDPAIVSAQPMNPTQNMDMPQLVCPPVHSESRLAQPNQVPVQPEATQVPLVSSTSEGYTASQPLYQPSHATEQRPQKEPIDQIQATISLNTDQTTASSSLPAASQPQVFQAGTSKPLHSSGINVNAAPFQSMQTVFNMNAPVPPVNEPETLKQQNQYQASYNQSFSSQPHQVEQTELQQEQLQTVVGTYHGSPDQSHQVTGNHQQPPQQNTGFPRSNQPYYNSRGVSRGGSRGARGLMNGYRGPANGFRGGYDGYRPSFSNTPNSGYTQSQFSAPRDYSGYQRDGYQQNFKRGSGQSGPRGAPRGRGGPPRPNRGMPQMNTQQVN
Protocol: (§1) Cells were plated in 10-cm cell culture dishes and grown to 60-80% confluency. For each condition, two biological replicates were harvested for co-IP. Cells were washed with PBS and 4 mL of lysis buffer (20 mM HEPES, 1% Triton X-100, 150 mM NaCl, 1 mM EDTA, and 10% glycerol) containing protease inhibitor cocktail was added. Cells were scraped and lysate was incubated at 4° C. under rotary agitation for 1 h. Lysate was centrifuged at 14,000×g for 10 min at 4° C. Supernatant was transferred to a new tube and an aliquot was taken as the input. […] For Western blots, 10 μg/mL Chicken Anti-FLAG (Aves labs ET-DY100) and IgY control (R&D Systems AB-101-C) antibodies were biotinylated (Thermo Fisher Scientific 90407) and added to the respective conditions. Lysates with antibodies were incubated at 4° C. under rotary agitation overnight. For each mL of lysate, 50 μL of Pierce Protein A/G Magnetic Beads (Mass spectrometry; Thermo Fisher Scientific 88803) or Pierce Streptavidin Magnetic Beads (Western blot; Thermo Fisher Scientific 88817) was washed twice with lysis buffer. Lysates with antibodies were added to the beads and incubated at 4° C. under rotary agitation for 4 h. Beads were washed with lysis buffer 3 times and resuspended in lysis buffer for storage.
(§2) Magnetic beads were resuspended in 100 mM Tris pH 7.8, reduced, alkylated and digested with trypsin at 37° ° C. overnight. This solution was subjected to solid phase extraction to concentrate the peptides and remove unwanted reagents followed by injection onto a Shimadzu HPLC with fraction collector. Eight fractions were collected and after concentration were injected on a Waters NanoAcquity HPLC equipped with a self-packed Aeris 3 μm C18 analytical column 0.075 mm by 20 cm, (Phenomenex). Peptides were eluted using standard reverse-phase gradients. The effluent from the column was analyzed using a Thermo Orbitrap Elite mass spectrometer (nanospray configuration) operated in a data dependent manner for 54 minutes. The resulting fragmentation spectra were correlated against the known database using Proteome Discover 1.4 (Thermo Fisher Scientific).

CPSF6 = molecular target: T2, CPSF6 (human, UniProt Q16630-2 1-588, limits assumed)
T2 construct: Identified by mass spectrometry in the co-IP; also called NP_001287876.1 (+3)
T2 sequence (looked up): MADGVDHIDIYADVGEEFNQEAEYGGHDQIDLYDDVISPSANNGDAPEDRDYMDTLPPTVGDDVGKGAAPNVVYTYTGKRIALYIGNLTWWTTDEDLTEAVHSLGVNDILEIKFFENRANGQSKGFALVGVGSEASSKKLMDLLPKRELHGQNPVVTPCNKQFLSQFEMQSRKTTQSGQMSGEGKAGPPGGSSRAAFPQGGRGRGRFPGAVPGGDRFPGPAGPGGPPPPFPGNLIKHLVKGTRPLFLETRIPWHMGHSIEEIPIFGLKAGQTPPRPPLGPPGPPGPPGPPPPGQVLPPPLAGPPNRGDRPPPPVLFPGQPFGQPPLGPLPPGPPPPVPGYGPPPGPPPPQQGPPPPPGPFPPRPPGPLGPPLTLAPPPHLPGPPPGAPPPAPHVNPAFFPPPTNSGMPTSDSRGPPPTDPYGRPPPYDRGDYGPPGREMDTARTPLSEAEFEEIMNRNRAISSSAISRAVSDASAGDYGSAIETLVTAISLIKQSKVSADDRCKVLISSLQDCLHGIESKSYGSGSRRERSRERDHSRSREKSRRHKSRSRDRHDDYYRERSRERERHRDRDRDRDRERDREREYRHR
Protocol: as §1, §2

SUPT16H = molecular target: T3, SUPT16H (human, UniProt Q9Y5B9 2-1047)
T3 construct: Identified by mass spectrometry in the co-IP; also called NP_009123.1 (+1)
Protocol: as §1, §2

TAF15 = molecular target: T4, TAF15 (human, UniProt Q92804-2 1-589, limits assumed)
T4 construct: Identified by mass spectrometry in the co-IP; also called NP_003478.1 (+1)
Protocol: as §1, §2

ANXA2 = molecular target: T5, ANXA2 (human, UniProt P07355-2 1-357, limits assumed)
T5 construct: Identified by mass spectrometry in the co-IP; also called NP_001002858.1 (+1)
Protocol: as §1, §2

PABPC1 = molecular target: T6, PABPC1 (human, UniProt P11940 1-636)
T6 construct: Identified by mass spectrometry in the co-IP; also called NP_002559.2
Protocol: as §1, §2

VIM = molecular target: T7, VIM (human, UniProt P08670 2-466)
T7 construct: Identified by mass spectrometry in the co-IP; also called NP_003371.2
Protocol: as §1, §2

T4 sequence (Q92804 other isoform, or with tags, fused parts or gaps limits assumed): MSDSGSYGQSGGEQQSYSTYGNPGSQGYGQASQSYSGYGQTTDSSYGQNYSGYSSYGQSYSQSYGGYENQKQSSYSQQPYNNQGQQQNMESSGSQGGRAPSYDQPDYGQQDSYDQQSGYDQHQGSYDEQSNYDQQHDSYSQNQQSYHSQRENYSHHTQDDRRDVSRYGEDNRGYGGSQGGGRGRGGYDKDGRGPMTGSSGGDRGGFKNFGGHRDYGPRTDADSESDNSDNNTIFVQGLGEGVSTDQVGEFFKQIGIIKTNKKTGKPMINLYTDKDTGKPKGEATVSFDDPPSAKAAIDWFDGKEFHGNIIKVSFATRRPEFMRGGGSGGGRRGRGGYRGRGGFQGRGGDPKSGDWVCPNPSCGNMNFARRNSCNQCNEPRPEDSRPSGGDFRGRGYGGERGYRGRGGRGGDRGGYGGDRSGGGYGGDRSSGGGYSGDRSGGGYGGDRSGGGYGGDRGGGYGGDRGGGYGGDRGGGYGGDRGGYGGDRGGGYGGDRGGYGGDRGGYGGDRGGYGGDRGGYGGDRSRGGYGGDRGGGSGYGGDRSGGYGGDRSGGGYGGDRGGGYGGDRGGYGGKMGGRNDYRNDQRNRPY
T5 sequence (P07355 other isoform, or with tags, fused parts or gaps limits assumed): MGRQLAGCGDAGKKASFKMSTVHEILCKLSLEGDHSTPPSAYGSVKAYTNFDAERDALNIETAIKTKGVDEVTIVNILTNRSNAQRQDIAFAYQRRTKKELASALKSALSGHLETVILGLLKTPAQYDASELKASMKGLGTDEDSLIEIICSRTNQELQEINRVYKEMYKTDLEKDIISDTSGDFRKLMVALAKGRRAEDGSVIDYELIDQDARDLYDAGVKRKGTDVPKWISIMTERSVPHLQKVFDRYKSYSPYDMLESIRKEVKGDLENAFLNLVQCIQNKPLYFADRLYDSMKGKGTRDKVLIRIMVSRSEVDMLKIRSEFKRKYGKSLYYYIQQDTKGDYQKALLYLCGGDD
T3 sequence (Q9Y5B9 2-1047 limits assumed): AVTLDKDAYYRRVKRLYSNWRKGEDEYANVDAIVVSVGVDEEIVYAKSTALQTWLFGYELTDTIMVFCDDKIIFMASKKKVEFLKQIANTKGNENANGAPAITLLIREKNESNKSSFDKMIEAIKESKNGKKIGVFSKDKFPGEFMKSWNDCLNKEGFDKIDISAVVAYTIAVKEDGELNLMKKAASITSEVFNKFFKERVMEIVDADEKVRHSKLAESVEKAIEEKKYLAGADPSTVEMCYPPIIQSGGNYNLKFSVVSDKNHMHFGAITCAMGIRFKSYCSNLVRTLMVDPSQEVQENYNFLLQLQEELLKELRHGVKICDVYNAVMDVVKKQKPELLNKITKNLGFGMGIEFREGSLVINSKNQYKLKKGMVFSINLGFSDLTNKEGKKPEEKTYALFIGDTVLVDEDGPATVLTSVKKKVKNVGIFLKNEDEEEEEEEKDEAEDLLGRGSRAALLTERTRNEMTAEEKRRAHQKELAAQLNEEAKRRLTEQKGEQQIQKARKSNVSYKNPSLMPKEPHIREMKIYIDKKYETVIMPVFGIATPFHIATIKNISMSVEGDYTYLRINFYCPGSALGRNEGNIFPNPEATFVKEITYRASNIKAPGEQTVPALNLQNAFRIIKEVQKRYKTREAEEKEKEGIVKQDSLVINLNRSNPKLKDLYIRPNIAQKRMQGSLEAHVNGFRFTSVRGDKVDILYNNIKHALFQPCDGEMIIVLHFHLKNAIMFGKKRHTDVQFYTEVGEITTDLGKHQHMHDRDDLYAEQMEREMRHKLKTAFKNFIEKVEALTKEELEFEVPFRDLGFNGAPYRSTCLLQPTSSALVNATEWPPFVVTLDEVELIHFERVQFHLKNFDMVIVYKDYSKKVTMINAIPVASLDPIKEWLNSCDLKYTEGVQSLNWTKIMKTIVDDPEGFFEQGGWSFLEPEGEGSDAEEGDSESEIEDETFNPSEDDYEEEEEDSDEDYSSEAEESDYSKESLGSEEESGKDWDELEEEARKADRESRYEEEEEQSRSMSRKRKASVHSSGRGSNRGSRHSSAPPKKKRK
T6 sequence (P11940 whole entry): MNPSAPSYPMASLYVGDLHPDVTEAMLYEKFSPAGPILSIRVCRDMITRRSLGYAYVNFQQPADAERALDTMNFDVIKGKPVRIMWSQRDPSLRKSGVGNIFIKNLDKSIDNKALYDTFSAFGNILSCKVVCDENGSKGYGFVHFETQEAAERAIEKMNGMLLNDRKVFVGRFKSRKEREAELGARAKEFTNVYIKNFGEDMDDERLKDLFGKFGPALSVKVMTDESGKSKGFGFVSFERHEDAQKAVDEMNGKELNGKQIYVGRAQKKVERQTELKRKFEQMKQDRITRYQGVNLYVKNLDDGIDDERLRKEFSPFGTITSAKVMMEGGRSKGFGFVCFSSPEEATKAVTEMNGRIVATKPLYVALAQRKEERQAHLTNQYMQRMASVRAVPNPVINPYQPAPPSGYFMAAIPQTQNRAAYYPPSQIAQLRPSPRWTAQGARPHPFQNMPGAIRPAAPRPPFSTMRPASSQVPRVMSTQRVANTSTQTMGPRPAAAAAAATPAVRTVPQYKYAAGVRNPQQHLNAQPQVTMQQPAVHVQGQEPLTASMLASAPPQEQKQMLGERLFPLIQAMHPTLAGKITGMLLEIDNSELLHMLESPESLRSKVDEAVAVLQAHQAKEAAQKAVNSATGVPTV
T7 sequence (P08670 2-466 limits assumed): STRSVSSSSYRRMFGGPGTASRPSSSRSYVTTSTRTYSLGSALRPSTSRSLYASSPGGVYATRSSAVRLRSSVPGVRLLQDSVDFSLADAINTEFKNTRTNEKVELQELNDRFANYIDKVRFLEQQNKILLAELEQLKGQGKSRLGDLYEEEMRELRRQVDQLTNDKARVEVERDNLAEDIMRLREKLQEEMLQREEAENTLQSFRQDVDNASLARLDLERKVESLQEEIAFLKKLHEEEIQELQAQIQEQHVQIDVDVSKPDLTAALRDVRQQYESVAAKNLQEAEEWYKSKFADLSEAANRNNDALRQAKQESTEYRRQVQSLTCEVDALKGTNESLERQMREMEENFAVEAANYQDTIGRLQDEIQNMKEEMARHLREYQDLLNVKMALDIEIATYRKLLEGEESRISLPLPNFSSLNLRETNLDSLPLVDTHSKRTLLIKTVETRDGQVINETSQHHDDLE

B1: N-terminal FLAG tagged B3GNT2 (enzyme, human, UniProt Q9NY97 1-397, looked up)
chain: MSVGRRRIKLLGILMMANVFIYFIMEVSKSSSQEKNGKGEVIIPKEKFWKISTPPEAYWNREQEKLNRQYNPILSMLTNQTGEAGRLSNISHLNYCEPDLRVTSVVTGFNNLPDRFKDFLLYLRCRNYSLLIDQPDKCAKKPFLLLAIKSLTPHFARRQAIRESWGQESNAGNQTVVRVFLLGQTPPEDNHPDLSDMLKFESEKHQDILMWNYRDTFFNLSLKEVLFLRWVSTSCPDTEFVFKGDDDVFVNTHHILNYLNSLSKTKAKDLFIGDVIHNAGPHRDKKLKYYIPEVVYSGLYPPYAGGGGFLYSGHLALRLYHITDQVHLYPIDDVYTGMCLQKLGLVPEKHKGFRTFDIEEKNKNNICSYVDLMLVHSRKPQEMIDIWSQLQSAHLKC
notes: FLAG-tagged ORF overexpressed in A375 cells; bait of the co-IP with mouse anti-FLAG; also called N-FLAG B3GNT2; N-term FLAG; not shown: N-terminal FLAG tag
- co-IP mass spectrometry count (N-term FLAG) (CAPRIN1): 7
- co-IP mass spectrometry count (N-term FLAG) (CPSF6): 30
- co-IP mass spectrometry count (N-term FLAG) (SUPT16H): 0
- co-IP mass spectrometry count (N-term FLAG) (TAF15): 5
- co-IP mass spectrometry count (N-term FLAG) (ANXA2): 17
- co-IP mass spectrometry count (N-term FLAG) (PABPC1): 31
- co-IP mass spectrometry count (N-term FLAG) (VIM): 402

Reference: US20240261333A1 (published 2024)
